Earlier results in patent US20150290107A1, “COMPOSITIONS FOR TREATMENT OF XEROSTOMIA AND FOR TOOTH TREATMENT” (3 IN 1 DENTAL PLLC, priority 2013, published 2015).

Tested on: lean meat
Conditions: usual grade

B1: Papain (protein, UniProt P00784 134-345, looked up)
Papain: IPEYVDWRQKGAVTPVKNQGSCGSCWAFSAVVTIEGIIKIRTGNLNEYSEQELLDCDRRSYGCNGGYPWSALQLVAQYGIHYRNTYPYEGVQRYCRSREKGPYAAKTDGVRQVQPYNEGALLYSIANQPVSVVLEAAGKDFQLYRGGIFVGPCGNKVDHAVAAVGYGPNYILIKNSWGTGWGENGYIRIKRGTGNSYGVCGLYTSSFYPVKN
notes: Protease enzyme; white or grayish-white, slightly hygroscopic powder
- potency: digesting times its weight of lean meat: ~35 times its weight
